Experimental findings from patent US7572436B1, “Thionin as an antineoplastic and immunostimulant” (priority 2000, dated 2009) are described below.

One data set deals with K562 Target Cells. The data set can be described thus: Natural killer assay (^51Cr release), human PBLs against K562. It counts as cell-based. Particulars: PT 0.01 μg/ml. As for the experimental part: Murine spleen cell and human peripheral blood lymphocytes (PBLs) were obtained as described in the procedure for the Mitogen Assay.
Drugs and control substances were added, using sterile techniques, to the wells of a 24-well plate, using RPMI-10 as the culture medium. Spleen cells or human lymphocytes were added last to the wells at a concentration of 4×10^6 cells per 2 ml total volume in the well. Splenocyte incubation was usually three days (65-70 hours) while human lymphocyte stimulation may be extended to four to five days. The cells were incubated at 37° C. in a humidified 5% CO2 incubator.
On the day of harvest, 10^7 target cells were labeled with 150 μCi of ^51Cr (sodium chromate). Target cells used were YAC-I (murine Lymphoma) or K562 (human chronic myelogenous leukemia). […]
The 96-well plate was centrifuged at 150×g for four minutes to gently bring the effector and target cells in contact. […] The percent release was calculated using the following formula: […]
Addition of PT stimulates both murine splenocytes and human PBLs to kill tumor cells through lysis. […] After a 30-minute incubation, the radioactivity in the supernatant fluid was counted as a measure of lysis of the target cells, which reflects NK activity. […]

A further data set deals with IL-2. The data set is described as follows: ELISA of IL-2 production by splenocytes. Format: cell-based. To be noted: Balb C murine spleen cells, 0.05 μg/ml PT, 48 hours. The protocol: Identical plates are set up for an immunoassay and a mitogen assay. Mouse splenocytes and immuno-stimulating drugs are plated in duplicate wells (immunoassay) and triplicate wells (mitogen assay) in 96-well microplates as described above. […] At the end of the activation/proliferation period, the two identical plates are harvested as an immunoassay for cytokines or harvested as a mitogen assay (to which ^3H-thymidine has been added approximately 16-18 hours earlier).
Immunoassay kits used to detect IL-1β, IL-2, and IL-12 were the murine Quantikine M™ kits produced by R&D Systems (Minneapolis, Minn.). The general procedure is the same for all interleukin cytokines, and is described in the instructions provided by the manufacturer. […]
One hundred microliters of Substrate Solution are added to each well and incubated 30 minutes at room temperature. […] The plate is read for absorbence at 450 nm and at 540 nm for background readings.
To calculate the results, the duplicate readings for each pair of standard, control, and test samples are averaged and the average background optical density readings are subtracted. […] Picograms of cytokine are determined from the standard curve. Mitogenic activity determined from the cpm of ^3H-thymidine is compared to the concentrations of cytokine in the experimental samples in the corresponding immunoassay. […]
For orientation: An ELISA detects its analyte on a solid surface through an enzyme-linked reagent.

Where no end group is shown, it is not given here.

As to “Pyrularia thionin (KSCCRNTWARNCYNVCRLPGTISREICAKKCDCKIISGTTCPSDYPK; ends and bridges not checked; also: labeled with 125I) [PT]”, the “% Cytotoxicity” value in the data set on K562 Target Cells is recorded as 8.4 ± 0.1%. Besides, the “stimulation of production of IL-2” value with IL-2 was “not conclusive”.
